From article PMC9763686 (The Journal of Biological Chemistry, 2022)

Columns and labels:
Test in all cases: ELISA
Conditions in all cases: one partner purified
[1] = target: H1N1-NP (nucleoprotein of A/Guangzhou/01/2009 (H1N1)) (Influenza A virus A/Guangzhou/01/2009 …, UniProt C3W5S2, strain)
[2] = target: IBV-NP (nucleoprotein of influenza B virus B/Yamagata/16/1988) (Influenza B virus B/Yamagata/16/1988, UniProt Q82662, strain)
[3] = target: H9N2-NP fragment 1 to 1308 bp (N436 amino acids) (Influenza A virus …, UniProt W5RGA6)
[4] = target: H9N2-NP fragment 1 to 1215 bp (N405 amino acids) (Influenza A virus …, UniProt W5RGA6)
[5] = target: H9N2-NP fragment 1 to 1167 bp (N389 amino acids) (Influenza A virus …, UniProt W5RGA6)
[6] = target: H9N2-NP fragment 1 to 1182 bp (N394 amino acids) (Influenza A virus …, UniProt W5RGA6)

B1: H9N2-NP-Nb42-HRP (VHH)
VHH: ESGGESVQAGGSLRLSCATSGFTYNRSYCMAWFRQVLGKEREGVAVIDRVGGSTYYADSVKGRFTVSQDNAKTTLYLQMNSLTPEDTAMYYCAAVSTLMTTCQGLLAGHSQRYAYWGQGTQVTVSS
Q: Which results are given for B1?
A: binding result [1]: binds; binding result [2]: no binding

B2: H9N2-NP-Nb53-HRP (VHH)
VHH: ESGGGSVQAGGSLRLSCAASGYTFSNVYMGWFRQAPGKEREGVAAIDRDGRTTYGDSVKGRFTISQDNAKNILYLQMSSLKPEDTATYYCAADPGYVELISEPLAGIWYRYWGQGTQVTVSS
Q: Does B2 bind [1]?
A: binds

Q: Does B2 bind [2]?
A: no binding

B3: H9N2-NP-Nb16-HRP (VHH)
VHH: ESGGGSVQAGGSLRLSCAASGYTYSAYCMGWFRQAPGKEREEVASIDSDFGTNYADSVKGRFTISKDNPKNTLYLQMNNLKAEDTAMYYCAALKYSSSLCLDALPSRANYWGQGTQVTVSS
Q: Does B3 bind [1]?
A: binds

Q: Does B3 bind [2]?
A: no binding

B4: H9N2-NP-Nb18-HRP (VHH)
VHH: ESGGGSVQAGGSLRLSCAASHTYGTYAMAWFRQAPGEEREGVAAIDSDGETIYADSVKGRFTISRDNAKNILYLQMNSLKPEDTAMYYCAEDLRGVWYGRLELRPGRFTYWGQGTQVTVSS
Q: Does B4 bind [1]?
A: binds

Q: Does B4 bind [2]?
A: no binding

B5: H9N2-NP-Nb5-HRP (VHH)
VHH: ESGGGLVQPGGSLRLSCAASGFPFSDYDMNWARQAPGKELEDVSAISSGGTYTYYADSVKGRFTISRDNAKNTLYLQLNSLQTEDTAMYYCGRGWTSGYKSRGQGTQVTVSS
Q: Does B5 bind [1]?
A: binds

Q: Does B5 bind [2]?
A: no binding

Q: Does B5 bind [3]?
A: binds

Q: Does B5 bind [4]?
A: binds

Q: Does B5 bind [5]?
A: binds

Q: Does B5 bind [6]?
A: binds
